# Values of other authors in publication PMC3823252.
# Target: KpOmpA (Klebsiella pneumoniae) (UniProt P24017)
# Sequence (P24017 2-344): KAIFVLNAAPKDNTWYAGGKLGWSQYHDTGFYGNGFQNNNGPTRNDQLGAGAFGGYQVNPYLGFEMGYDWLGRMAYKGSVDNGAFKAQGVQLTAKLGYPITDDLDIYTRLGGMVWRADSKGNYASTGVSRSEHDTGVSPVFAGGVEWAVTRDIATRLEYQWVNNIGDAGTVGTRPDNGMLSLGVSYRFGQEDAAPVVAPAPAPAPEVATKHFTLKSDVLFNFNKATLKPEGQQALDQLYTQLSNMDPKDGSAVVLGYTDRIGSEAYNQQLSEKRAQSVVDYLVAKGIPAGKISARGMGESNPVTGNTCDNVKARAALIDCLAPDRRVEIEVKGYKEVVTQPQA
# Chain of PTX3 (P26022 18-381): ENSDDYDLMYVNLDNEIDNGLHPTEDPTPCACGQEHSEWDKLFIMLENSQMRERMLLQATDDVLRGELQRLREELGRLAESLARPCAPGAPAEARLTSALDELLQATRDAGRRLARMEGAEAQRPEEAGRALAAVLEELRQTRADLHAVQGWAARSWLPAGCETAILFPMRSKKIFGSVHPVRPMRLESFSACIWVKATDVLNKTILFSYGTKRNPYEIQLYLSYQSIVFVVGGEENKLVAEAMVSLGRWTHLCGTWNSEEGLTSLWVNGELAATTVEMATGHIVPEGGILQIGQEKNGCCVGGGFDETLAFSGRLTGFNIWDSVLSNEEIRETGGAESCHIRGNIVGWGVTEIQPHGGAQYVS
substance,measurement,value
PTX3 (from UniProt P26022),Kd,50 nM
